Assay [1] deals with T1, human IGSF11 (VSIG3) on cells (human, UniProt Q5DX21 23-431).
T1 sequence: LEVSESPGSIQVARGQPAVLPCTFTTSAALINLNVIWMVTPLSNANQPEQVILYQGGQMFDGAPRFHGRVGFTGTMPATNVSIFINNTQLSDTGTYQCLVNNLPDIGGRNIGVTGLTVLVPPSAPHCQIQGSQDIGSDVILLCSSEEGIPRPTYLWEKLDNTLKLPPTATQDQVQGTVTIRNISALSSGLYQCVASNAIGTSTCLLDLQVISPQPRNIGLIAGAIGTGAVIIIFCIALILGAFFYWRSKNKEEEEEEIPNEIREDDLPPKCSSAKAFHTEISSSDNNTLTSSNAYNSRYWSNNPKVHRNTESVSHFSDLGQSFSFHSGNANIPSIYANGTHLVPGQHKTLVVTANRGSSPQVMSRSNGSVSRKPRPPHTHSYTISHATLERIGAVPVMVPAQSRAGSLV
Briefly: FACS, IgG1-format antibodies; DMS 273 cells (D) treated with IGSF11 siRNA (KD). On the technique in general: A flow cytometer gives signals particle by particle.

Assay [2] deals with T1, human IGSF11 (VSIG3) on cells. Briefly: FACS, IgG1-format antibodies; CL-11 cells (C), a line that does not express IGSF11 (specificity control), IGSF11 siRNA (KD).
Assay [3] deals with T2, IGSF11 ECD fused to murine-Fc (human; mouse, UniProt Q5DX21 23-241).
T2 construct: also called Fc-fusion IGSF11 ECD; full-length ECD of IGSF11; not shown: murine Fc
T2 sequence: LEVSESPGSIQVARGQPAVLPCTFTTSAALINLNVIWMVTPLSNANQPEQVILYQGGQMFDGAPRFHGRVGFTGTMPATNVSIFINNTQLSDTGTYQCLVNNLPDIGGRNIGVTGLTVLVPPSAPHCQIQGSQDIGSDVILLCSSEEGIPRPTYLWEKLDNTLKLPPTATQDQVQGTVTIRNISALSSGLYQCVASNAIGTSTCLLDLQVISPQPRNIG
Briefly: ELISA: IgG titrated on coated murine-Fc fusion of IGSF11 ECD; x axis IgG nM, y axis absorption per legend.

Assay [4] addresses T1, human IGSF11 (VSIG3) on cells. Put plainly: FACS, IgG1-format antibodies; CL-11 cells (C), a line that does not express IGSF11 (specificity control), scrambled control siRNA (SC).
Assay [5] shares this target. Briefly: FACS, IgG1-format antibodies; M579-A2-luc cells (M) treated with scrambled control siRNA (SC).
Assay [6] deals with T3, His-tagged extracellular domain (ECD) of human IGSF11 (VSIG3) (human, UniProt Q5DX21 23-241).
T3 construct: partly bought (SinoBiological 13094-H08H); also called IGSF11-HIS; HIS-IGSF11; not shown: HIS6 tag
T3 sequence: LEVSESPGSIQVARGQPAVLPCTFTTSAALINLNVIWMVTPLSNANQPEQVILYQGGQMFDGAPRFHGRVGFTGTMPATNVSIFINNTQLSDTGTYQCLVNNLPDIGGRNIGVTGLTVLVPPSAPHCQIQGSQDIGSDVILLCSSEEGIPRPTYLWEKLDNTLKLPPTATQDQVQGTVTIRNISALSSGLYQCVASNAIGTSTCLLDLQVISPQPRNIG
Briefly: ELISA: IgG1-format antibody titrated on coated His-tagged IGSF11; x axis nM IgG, y axis absorbance per legend. In general terms: An ELISA detects its analyte on a solid surface through an enzyme-linked reagent.

The target in assay [7] is T4, recombinant human IGSF11 (VSIG3) extracellular domain (ECD) (human, UniProt Q5DX21 23-241, biotinylated where captured on streptavidin).
T4 construct: also called biotinylated recombinant ECD-IGSF11; IGSF11 (ECD domain)
T4 sequence: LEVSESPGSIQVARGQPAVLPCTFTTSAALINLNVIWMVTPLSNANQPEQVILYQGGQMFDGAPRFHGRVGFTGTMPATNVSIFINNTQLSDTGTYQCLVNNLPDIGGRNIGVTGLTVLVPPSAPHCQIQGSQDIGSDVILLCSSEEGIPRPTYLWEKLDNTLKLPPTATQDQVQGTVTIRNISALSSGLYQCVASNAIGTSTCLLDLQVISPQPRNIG
Put plainly: SPR, IgG1. (In general: SPR reads the build-up and loss of mass on a sensor chip optically.)

Assay [8] has as its target T4, recombinant human IGSF11 (VSIG3) …. Put plainly: BLI, IgG1.
In assay [9] the target is T1, human IGSF11 (VSIG3) on cells. Put plainly: FACS, HEK cells expressing IGSF11.
The target is the same in assay [10]. Put plainly: FACS, DMS 273 cells.
Assay [11] concerns the target T3, His-tagged extracellular domain (ECD) …. Briefly: blocking ELISA: antibody pre-incubated with His-tagged IGSF11 ECD, complexes added to immobilised VSIR-Fc; y axis % remaining IGSF11 binding to VSIR, x axis nM IgG per legend.
Assay [12] has as its target T4, recombinant human IGSF11 (VSIG3) …. Put plainly: BLI, apparent affinity, IgG captured, IGSF11 ECD 100 nM.
From the text: Briefly, various APBs were loaded on an optical biosensor via a commercially available Capture System (AHC sensors, ForteBio).
Assay [13] has as its target T3, His-tagged extracellular domain (ECD) …. Put plainly: blocking ELISA: IgG pre-incubated with His-tagged IGSF11 ECD, complexes added to immobilised VSIR-Fc; y axis % remaining IGSF11 binding, x axis IgG nM per legend.
Method: All binding steps were for 1 hour at room temperature, and all washing steps were three times washing with PBS/Tween (0.05%).
Assay [14] has as its target T2, IGSF11 ECD fused to murine-Fc. Briefly: ELISA, IgG.
From the text: (§1) Expi293 cells (ThermoFisher) were transiently transfected with DNA sequences encoding the applicable IGSF11 domain-mFc fusions according to the manufacturer's instructions, and cultured under conditions suitable to the IGSF11 domain fusion. Cell supernatants were harvested 5 days post transfection and the expressed Fc-protein purified via Protein A affinity chromatography (GE Healthcare). IGSF11 domain Fc-fusion proteins were re-buffered into PBS pH7.4. […] The surface was blocked with 2% (w/v) skim milk powder in PBST. After three wash cycles with PBST, a dilution series of IgG-format ABPs was transferred to the immobilized the Fc-fusion IGSF11 ECD or the IGSF11 domains and incubated for 1 h. After removing all unbound antibodies by 3 wash cycles with PBST, bound IgG ABPs were detected with a goat anti-human IgG antibody conjugated with horseradish peroxidase. After three wash cycles with PBST the ELISA was developed with TMB substrate.
Assay [15] addresses T3, His-tagged extracellular domain (ECD) …. Briefly: ELISA EC50 grade, IgG1.
Assay [16] addresses T1, human IGSF11 (VSIG3) on cells. Briefly: FACS, IgG1-format antibodies; DMS 273 cells (D) treated with scrambled control siRNA (SC).
Assay [17] shares this target. Briefly: FACS, IgG1-format antibodies; M579-A2-luc cells (M) treated with IGSF11 siRNA (KD).
The target of assay [18] is T5, IgC2 domain of human IGSF11 fused to murine IgG2a Fc-region (human; mouse, UniProt Q5DX21 137-241).
T5 construct: also called IgC2-like domain mFc fusion; not shown: murine IgG2a Fc-region
T5 sequence: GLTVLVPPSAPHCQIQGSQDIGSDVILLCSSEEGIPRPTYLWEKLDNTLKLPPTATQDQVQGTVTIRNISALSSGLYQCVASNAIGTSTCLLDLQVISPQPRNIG
Put plainly: ELISA, IgG.

Assay [19] deals with T2, IGSF11 ECD fused to murine-Fc. Put plainly: ELISA, IgG. This is another data set of the same source.
From the text: as §1
Assay [20] deals with T6, IgV domain of human IGSF11 fused to murine IgG2a Fc-region (human; mouse, UniProt Q5DX21 23-143).
T6 construct: also called IgV-like domain mFc fusion; not shown: murine IgG2a Fc-region
T6 sequence: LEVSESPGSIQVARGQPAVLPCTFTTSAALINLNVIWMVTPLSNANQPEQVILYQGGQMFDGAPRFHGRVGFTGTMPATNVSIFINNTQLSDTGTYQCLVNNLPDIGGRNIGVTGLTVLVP
Briefly: ELISA, IgG.

Like-named read-outs stand apart in the source and are kept apart here.

B1: A-006 (IgG1 format) (antibody, V domains shown)
VH: EVQLVESGGGLIQPGGSLRLSCAASGFTVSSNYMSWVRQAPGKGLEWVSVIYSGGSTYYADSVKGRFTISRDNSKNTLYLQMNSLRAEDTAVYYCARGNPYYYGDLQVNFDYWGQGTLVTVSS
VL: QAVVTQEPSLTVSPGGTVTLTCASSTGAVTSGYYPNWFQQKPGQAPRPLIYSTSNKHSWTPARFSGSLLGGKAALTLSGVQPDDEAEYYCLLYYGGDWVFGGGTKLTVL
notes: human IgG1 format; also called A-006-like ABP
Turning to B1, the “percentage binding (FACS heat-map)” value in assay [1] was 5.72%; in [2] it was 3.04%; in assay [4], 2.31%; in assay [5] it was 75.3%; in [16] it was 81.1%; in [17] it was 2.59%. In addition, the EC50 (read off the curve) (as a rule, the midpoint of the concentration-response curve) in [3] is around 0.5 nM; in assay [6], around 0.01 nM. The values for the Kd in assay [7], in assay [8] and in assay [12] were 250 to 500 nM, 1 to 10 nM and below 15 nM, respectively. The EC50 (usually the concentration needed to bring the measured effect to its halfway point) in assay [9] was 10 to 50 nM; in [10], above 50 nM; in assay [14], below 1 nM; in assay [15], below 0.02 nM. For the same molecule, the “IC50 (read off the curve)” value in [11] and in assay [13] was around 4 nM in each case.

B2: A-026 (IgG1 format) (antibody, V domains shown)
VH: QVQLQESGPGLVKPSQTLSLTCTVSGGSISSGGYYWSWIRQHPGKGLEWIGYIYYSGSTYYNPSLKSRVTISVDTSKNQFSLKLSSVTAADTAVYYCASWSLGTSNHGWFDPWGQGTLVTVSS
VL: QSVLTQPPSASGTPGQRVTISCSGSSSNIGSNTVNWYQQLPGTAPKLLISDNNNRPSGVPDRFSGSKSGTSASLAITGLQAEDEADYYCQSYDSNLSGWVFGGGTKLTVL
notes: human IgG1 format
Turning to B2, the “percentage binding (FACS heat-map)” value in [1] was found to be 3.81%; in assay [2], 3.47%; in assay [4], 3.6%; in [5], 11.6%; in assay [16], 64.4%; in [17], 2.01%. The Kd in [7] was above 500 nM; in assay [8], 20 to 30 nM. In addition, the EC50 in assay [9] is above 50 nM; in assay [14] it was 1 to 20 nM; in assay [18] it was 1 to 20 nM; in assay [15], 0.02 to 0.05 nM.

B3: C-025 (IgG1 format) (antibody, V domains shown)
VH: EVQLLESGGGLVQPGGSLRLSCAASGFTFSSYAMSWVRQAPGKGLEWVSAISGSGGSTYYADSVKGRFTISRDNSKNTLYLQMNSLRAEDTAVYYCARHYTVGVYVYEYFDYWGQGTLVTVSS
VL: SYELTQPPSVSVSPGQTASITCSGDKLGDKYASWYQQKPGQSPVLVIYQDSKRPSGIPERFSGSNSGNTATLTISGTQAEDEADYYCQSYATAGFVFGGGTKLTVL
notes: wildtype human IgG1 and kappa or lambda constant regions
For B3, the EC50 in assay [19] was 1 to 20 nM; in assay [20], below 1 nM.

The values are drawn from patent publication US20240010720A1 (IOMX THERAPEUTICS, published 2024).
